Experimental data from US11098306B1, “Promoters and uses thereof” (priority 2018, dated 2021).

Tested on: mCherry expression in E. coli
Assay: Bulk mCherry fluorescence of E. coli strains (plate reader, normalized to OD600) after induction with phenolics
Format: cell-based
Settings: for improvement of expression levels in comparison with PemrR: 5 mM vanillic acid; for improvement of expression levels in comparison with PemrR / improved gene expression in comparison with PemrR / fold change in comparison with PemrR: 24 h of induction; for increase in fluorescence / protein expression in comparison with native promoter PemrR (control strain RIF01): induced with 5 mM vanillin, 12 h after induction, 30° C.; for improved gene expression in comparison with PemrR: 1 mM coumaric acid; for fold change in comparison with PemrR: 5 mM coumaric acid
Protocol: Cell growth and bulk fluorescence measurements: For the fluorescence experiments, frozen stocks of the strains were used to inoculate 5 ml of LB medium containing 25 mg l^−1 chloramphenicol and incubated at 37° C. with an orbital shaking of 250 r.p.m. Overnight cultures were used to inoculate (0.1% volume/volume) an M9 salt medium containing 25 mg l^−1 chloramphenicol, 20 g l^−1 glucose, and 5 g l^−1 yeast extract. The M9 salt medium (Sigma-Aldrich) contains 6.78 g l^−1 Na2HPO4, 3 g l^−1 KH2PO4, 0.5 g l^−1 NaCl, 1 g l^−1 NH4Cl, 0.1 mM CaCl2), and 2 mM MgSO4. 200 μl cultures of each strain (in triplicates) were loaded into black 96-well plates (black polystyrene plates with flat pclear bottom from Greiner Bio-One) and covered with Breathe-Easier sealing membrane (Sigma).
The cultures were grown until mid-log phase at 37° C. and 250 rpm. The mid-log phase cells were induced with phenolics such as vanillin, coumaric acid, and vanillic acid at varying concentrations. The induced cells were incubated in a plate reader (Tecan Infinite 200 Pro) at 30° C. and a 3 mm shaking amplitude. The optical density of the cultures and the mCherry fluorescence was monitored at required intervals in the plate reader. Cell density was measured by monitoring the absorption of the cultures at 600 nm (OD600). Fluorescence was recorded using an excitation wavelength of 575±9 nm and an emission wavelength of 610±20 nm with a manual gain of 100 and a Z-position of 20,000 μm. Fluorescence readings are reported as normalized fluorescence given by the ratio of fluorescence of the cells to the OD600. The fold changes were reported as the ratio of fluorescence level of the strain with engineered promoter to the strain with the basal promoter.

| Molecule | induction of the promoters (PemrR, Pvtac, Pvtrc, Pvtic) by the phenolic (strains RIF01-RIF04, effect emerged after 24 h) | improvement of expression levels in comparison with PemrR | increase in fluorescence / protein expression in comparison with native promoter PemrR (control strain RIF01) | improved gene expression in comparison with PemrR | fold change in comparison with PemrR |
| --- | --- | --- | --- | --- | --- |
| COc1cc(C(=O)O)ccc1O [Vanillic acid, vanillic acid, reference compound] | some level of induction |  |  |  |  |
| Pvtic: engineered hybrid phenolic-inducible promoter, PemrR with spacer region of Ptic, SEQ ID NO:55 (nucleic acid, expressed or natural sequence) DNA: GAATCATTTTTCTAAAACAATACATTTGACAATTAATCATCGCGGCTCGTATAATGATCGGCTGAAATTAATGAGGTCATACCCAAAT |  | 2.1 fold | 1.5 fold |  |  |
| Pvtac: engineered hybrid phenolic-inducible promoter, PemrR with spacer region of Ptac, SEQ ID NO:53 (nucleic acid, expressed or natural sequence) DNA: GAATCATTTTTCTAAAACAATACATTTGACAATTAATCATCGGCTCGTATAATGATCGGCTGAAATTAATGAGGTCATACCCAAAT |  | 9.5 fold | 4.6 fold | 10.4 fold | 7.1 fold |
| Pvtrc: engineered hybrid phenolic-inducible promoter, PemrR with spacer region of Ptrc, SEQ ID NO:54 (nucleic acid, expressed or natural sequence) DNA: GAATCATTTTTCTAAAACAATACATTTGACAATTAATCATCCGGCTCGTATAATGATCGGCTGAAATTAATGAGGTCATACCCAAAT |  | 6.8 fold | 3.0 fold | 8.5 fold | 6.4 fold |
